Data published in patent US20200247849A1, “PEPTIDE AGONISTS AND ANTAGONISTS OF TLR4 ACTIVATION” (PEPTICOM LTD, priority 2016, published 2020).

Target: T1, CD14-TLR4 (Homo sapiens, UniProt P08571)
T1 construct: expressed in transfected cells; host or cells: NIH3T3
T1 sequence (P08571 20-345 limits assumed): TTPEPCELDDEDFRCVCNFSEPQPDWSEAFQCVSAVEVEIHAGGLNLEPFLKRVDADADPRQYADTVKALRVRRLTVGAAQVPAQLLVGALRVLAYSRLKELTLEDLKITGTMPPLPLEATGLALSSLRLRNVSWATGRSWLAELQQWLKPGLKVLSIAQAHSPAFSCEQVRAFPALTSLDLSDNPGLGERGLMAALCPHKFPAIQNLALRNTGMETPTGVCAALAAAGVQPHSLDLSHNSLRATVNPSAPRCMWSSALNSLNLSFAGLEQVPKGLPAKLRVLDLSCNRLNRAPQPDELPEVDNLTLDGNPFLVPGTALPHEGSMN
Experiment: Reporter gene assay, NIH3T3 cells transfected with CD14 and TLR4, LPS-mediated activation
Type: cell-based
Conditions: FIG. 6I
From the text: FIGS. 6A-6V present peptide activity using NIH3T3 cells that express TLR4, with either the MD2 co-receptor (top) or CD14 co-receptor (bottom), for peptides of SEQ ID Nos. 1-22, respectively, according to some embodiments of the invention. FIGS. 6A-6V show the dose response inhibitor/activator effects of the designed peptides using a reporter gene assay. The reporter gene assay is composed of NIH3T3 cells transfected with either MD2 or CD14 along with TLR4 and the NF-κB-inducible reporter gene Secreted Alkaline Phosphatase (SEAP) to monitor TLR4 activation (Burger-Kentischer et al. 2010, A new cell-based innate immune receptor assay for the examination of receptor activity, ligand specificity, signaling pathways and the detection of pyrogens. J Immunol Methods. 358(1-2): 93-103). […] The receptors are coupled to for the detection of inhibitory activity, cells were treated with the peptide prior to exposure to LPS and the response to LPS is measured at variable peptide doses (as labeled). […]
At Day 3: To determine the final SEAP value, 50 μl of the supernatant is carefully transferred in a new 96-well plate (Greiner-F-plate) and 50 μl of the substrate (pNPP; p-nitrophenyl phosphate) is added. SEAP catalyzes the hydrolysis of pNPP to the final product para-nitrophenol (yellow) which can be detected by a photometric analysis using an UV-VIS reader at 405 nm. […]

## ILFMGMKWL (Inhibitor) [SEQ ID No. 9]
  inhibition of LPS mediated CD14-TLR4 activation: inability of to inhibit
